1 substance from patent US20030108958A1 can be followed below.

This assay deals with AK155 receptor complex (IL-20R1 and IL-10R2), endogenous on human cell lines (human) (UniProt Q9UHF4). As to the kind of experiment: cell-based or functional assay.
AK155 receptor complex (IL-20R1 and IL-10R2), endogenous on human cell lines (human), sequence (Q9UHF4 30-553 V259I/L382F limits assumed, chain 1 of 2): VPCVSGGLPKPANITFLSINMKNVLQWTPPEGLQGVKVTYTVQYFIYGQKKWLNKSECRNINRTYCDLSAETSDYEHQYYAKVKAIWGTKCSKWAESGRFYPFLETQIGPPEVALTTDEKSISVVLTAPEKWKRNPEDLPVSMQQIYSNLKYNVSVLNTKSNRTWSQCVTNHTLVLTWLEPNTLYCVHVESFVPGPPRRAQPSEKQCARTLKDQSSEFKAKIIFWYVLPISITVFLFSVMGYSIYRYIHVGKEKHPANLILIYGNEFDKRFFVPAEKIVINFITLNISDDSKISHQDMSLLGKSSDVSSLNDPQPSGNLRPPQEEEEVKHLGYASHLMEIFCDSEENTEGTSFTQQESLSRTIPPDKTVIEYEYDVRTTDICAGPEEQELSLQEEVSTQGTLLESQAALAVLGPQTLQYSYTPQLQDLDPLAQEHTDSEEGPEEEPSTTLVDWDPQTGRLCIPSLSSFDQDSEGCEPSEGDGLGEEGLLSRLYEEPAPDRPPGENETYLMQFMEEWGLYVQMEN
AK155 receptor complex (IL-20R1 and IL-10R2), endogenous on human cell lines (human), sequence (chain, as listed by the source limits assumed, chain 2 of 2): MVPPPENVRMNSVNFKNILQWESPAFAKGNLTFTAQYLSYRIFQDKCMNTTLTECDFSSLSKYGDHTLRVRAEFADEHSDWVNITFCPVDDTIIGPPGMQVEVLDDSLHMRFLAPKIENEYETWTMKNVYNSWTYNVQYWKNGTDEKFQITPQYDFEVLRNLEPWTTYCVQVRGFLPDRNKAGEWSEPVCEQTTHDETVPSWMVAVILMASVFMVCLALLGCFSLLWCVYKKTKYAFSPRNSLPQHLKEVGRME

As for “AK155 (from UniProt Q9NPH9 22-171) (ligand)”, the IL-8 in supernatant of Colo-205 cells (ELISA), 24 h, with AK155 (without AK155: 552) stood at 670 pg/mL; the IL-8 in supernatant of Colo-205 cells (ELISA), 48 h, with AK155 (without AK155: 623) worked out at 989 pg/mL; the IL-10 in supernatant of Colo-205 cells (ELISA), 24 h, with AK155 (without AK155: 61) is 112 pg/mL; the IL-10 in supernatant of Colo-205 cells (ELISA), 48 h, with AK155 (without AK155: 60) worked out at 94 pg/mL.
